Measurements published in publication PMC9481576.

target: human α-thrombin (human) (UniProt P00734); experiment: enzyme inhibition assay (chromogenic thrombin amidolytic activity); 0.14 nM human α-thrombin, 100 μM N-(p-Tosyl)-GPR-pNA, varying concentrations of inhibitor; 50 mM Tris-HCl, 50 mM NaCl, pH 8; absorption at 405 nm; Ki from a Morrison equation

Substance	Ki
madanin-1 sulfated at both Tyr32 and Tyr35 (natural protein)	0.5 nM
wildtype madanin-1 (natural protein)	16 nM
chimadanin with sTyr at Tyr28 (natural protein)	0.6 nM
madanin-1 with sTyr at Tyr35 (natural protein)	6.1 nM
madanin-1 with sTyr at Tyr32 (natural protein)	1.3 nM
chimadanin with sTyr at Tyr31 (natural protein)	1.5 nM
wildtype chimadanin (natural protein)	12.9 nM
chimadanin sulfated at both Tyr28 and Tyr31 (natural protein)	0.1 nM
